Data reported in the DeepSol protein solubility set.

Test: soluble on expression in E. coli; label from the status in PepcDB or PDB records

Sequence | soluble on expression in E. coli
NVVETKALFVSTNDLARRLQKLNNEQKIQSNRLKTTIENIPSAILMIDRNGKIVVANKAYYEQFNISHNIEQVGYHGYVNTEIEQLILESFKVEKPIYEQLEVAINQVHAKYFDISCVPILTRSQKSLQGILVVMHD | not soluble
NYRSRAAYKLIELDNKYLFLKKNKIILDIGCYPGSWCQVILERTKNYKNKIIGIDKKIMDPIPNVYFIQGEIGKDNMNNIKNINYIDNMNNNSVDYKLKEILQDKKIDIILSDAAVPCIGNKIDDHLNSCELTLSITHFMEQYINIGGTYIVKMYLGSQTNNLKTYLKGMFQLVHTTKPKASRNESREIYLVCKNFLGRKK | soluble
PAQDYRCQLSRNYGKGSGSFTNYYYDKATSSCKTFRYRGSGGNGNRFKTLEDCEATCVTAE | soluble
PDLAQKAANLTQEELAGLLYDSLYTKILPLSDDIIVYPAHGAGSACGKNMMQETVDSLGNQKRVNYALNQPGKEAFIASVIEGLLPPPAYFGGNVAMNKMGYDSIDNVMERGLSALSATDFEAIAKTSDALVLDTRAPGVFAQGFIPRSINIGLDGDFAPWVGTMIVDVKQPLLLVADPGREQEVITRLSRVGFDQVLGYLDGGFDTWNASGKEIDHVECITANEFAERFCPEESLVFDVRKESEYAAEHVEGAYSRPLAYINDWIQDIPRDRHFYLHCIGGYRSMIASSILLSRGYRNFTDIEGGFASIAQTGVPKTDYVCQSKVSKK | not soluble
PDVDGMITLKVDNLTYRTSPDSLRRVFEKYGRVGDVYIPREPHTKAPRGFAFVRFHDRRDAQDAEAAMDGAELDGRELRVQVARYGRRDL | soluble
PERESVRHKQPKSKEKKNAEKHIPHGIKCFVHAPEKYEWRWMGDEYVHALTPNVLEMVECLKANGIRLHTAGITVGMQKGKDLVPAPALALSTEMDDHSFFDMEFSRDEALSYLARQSVTTMPDLPLGFVLATFRRRPLGFLKNLGTRANNLYPQDWRIRNLETSEDCMEAKD | not soluble
PFEGNRVDIYTGGYSKLQALLRELQKARLHIHMEYYIFEDDPVGRLVRDVLIEKAREGVEVRVIYDDVGCWHVPHRFFEEMRDAGIEVRSFLKVRFPLFTSKVNYRNHRKIVVIDGRIGFIGGMNLAERYMRGFSWGIWRDTHILLEGKAVHGLQTAFLLDWYFVDRTLITASRYFPKIEAYGNSLVQIVTSEP | not soluble
PGPPQGPPQPVQQSKRLQQTQAQVEEVVDIMRVNVDKVLERDSKISELDDRADALQAGASQFEASAGKLKRKFWWKNCKM | soluble
PGTESTFSNCYALNVEVVSLDSGDQAVLGGFVGQVSANFIAKHCYVSAKVTGGKNPGAFVGMTADESMNCKYDGCFYNNEQNP | not soluble
PGYLNDIPRHGMFVKDLILLVNDTAAVAYDPMENECYLTALAEQIPRNHSSIVTQQNQVYVVGGLYVDEENKDQPLQSYFFQLDNVSSEWVGLPPLPSARCLFGLGEVDDKIYVVAGKDLQTEASLDSVLCYDPVAAKWSEVKNLPIKVYGHNVISHNGMIYCLGGKTDDKKCTNRVFIYNPKKGDWKDLAPMKTPRSMFGVAIHKGKIVIAGGVTEDGLSASVEAFDLKTNKWEVMTEFPQERSSISLVSLAGSLYAIGGFAMIQLESKEFAPTEVNDIWKYEDDKKEWAGMLKEIRYASGASCLATRLNLFKLSKL | soluble
PHRPVQESVANAYDALGGYLEAKADFFDPDEAAWIGNRHIDLAMSNTGVITAFNQCRSALFYRLRGKHRHPRTAKMLRYYFAAQDIHERISSAHVDYQEMSEKFKNTDIIFRIHRLLEMQGQACRNTAQALRASKDYVYSKRLGRAIEGCRQSLRLLSDSNDSPDIRHLRRLLDNLGSVDQQFRQLQHNGLQAENDRMGDTRIAALETSSLKNTWQAIRPQLNLESGVFRH | not soluble
PIGKATDNMYSYLALLQDDPTIQIVNQAQKAYVEKVAPSIAAMAGLPILSAGAPFKAGGRKNDPTGYTEVNKGKLTFRNAADLYLYPNTLVVVKATGEQLKEWLECSAGMFKQIDPTSDKPQSLIDWEGFRTYNFDVIDGVNYEYDLTKPARYDGECKLINPESHRVVNLTYQGKPVDPKAEFLIATNNYRAYGNKFPGTGDKHIVYASPDESRQILADYIKATSEKEGSVNPNADKNWRFVPI | not soluble
PKIAGIDLGTTYSSIGIYHAVTGETIILPDDLGKKSVPSVVAFLPNGTVLIGTRATEQQEHNPKRTIYDAKRFIGRNFEKNNKDFLSDQKRYPFKINLDSEGKAFFEIPLDSGTKNVYPEEIGSLIIGYLKSAAAKHLGVTLGQVVISCPAEFNEKQRNFTAKAAEIAEMEVRRVISEPTAAALAYGLHKKQGVENVVVVDLGGGTLDVSVLWLQGGVFVTQAMAGNNRLGGQDFNDRVQKHLISKIAEKFGKTIDNKEDIQQIRMEVEKGKIRLTNVPSTTISLNLKTVGKWNYELTRDEFETLNGDLLKAIELPITAALADANLDTADVDEIVLVGGSTQVPAVRKIVGRFFKKSANYGVDPELAVVTGASVQAGVIGGGWPLQVAAMELPAKRRKRHFFTEEQKENEKDRTISEL | not soluble
PKPPYSYIALITMAIRDSAGGRLTLAEINEYLMGKFPFFRGSYTGWRNSVRHNLSLNDCFVKVLRDPSRPWGKDNYWMLNPNSEYTFADGVFRRRRYRLS | soluble
PLGSDSAKLIFINQINDCKDGQKLRFLGCVQSYKNGILRLIDGSSSVTCDVTVVLPDVSIQKHEWLNIVGRKRQDGIVDVLLIRSAVGINLPRYRQMVSERQKCD | soluble
PLKIGPPGHRYAFPLYSSKNLERDDLRGIRRLVIVLHGVKRNAASIHGTVTALFAANPERAEDTLVIAPKFASAIDAGFAAMPAWRRASWEDGELSMQARGRPAPVSSLQVLDDLLRELSDSSRLPALRTIVLAGHSGGAQLVQRYAVLNSLDETL | not soluble
PLNRLGHKIYQHSGKWLQETAAEKLNQRDQLINPGHAQVLILGMGRIGTGAYDELRARYGKISLGIEIREEAAQQHRSEGRNVISGDATDPDFWERILDTGHVKLVLLAMPHHQGNQTALEQLQRRNYKGQIAAIAEYPDQLEGLLESGVDAAFNIYSEAGSGFARHVCKQLEPQFTSIK | soluble
PPGTVDKKMVEKCWKLMDKVVRLCQNPKLALKNSPPYILDLLPDTYQHLRTILSRYEGKMETLGENEYFRVFMENLMKKTKQTISLFKEGKERMYEENSQPRRNLTKLSLIFSHMLAELKGIFPSGLFQGDTFRITKADAAEFWRKAFGEKTIVPWKSFRQALHEVHPISSGLEAMALKSTIDLTCNDYISVFEFDIFTRLFQPWSSLLRNWNSLAVTHPGYMAFLTYDEVKARLQKFIHKPGSYIFRLSCTRLGQWAIGYVTADGNILQTIPHNKPLFQALIDGFREGFYLFPDGRNQNPDLTGLCEPTPQDHIKVTQEQYELYCEMGSTFQLCKICAENDKDVKIEPCGHLMCTSCLTSWQESEGQGCPFCRCEIKGTEPIVVDPF | soluble
PREIVDFHAKLINDTPLSTYVGFLDDLQEHDEIDNARALSGIPGVVIVGEQDAVTPQSQSERIVSLWSDAGLQIAPNAGHMIILEQPAIVNKAIDQMVQQAAQNVQKDDA | not soluble
PREVLTGGHSVSAPQENRIYVMDSVFMHLTESRVHVYDYTNGKFLGMVPTAFNGHVQVSNDGKKIYTMTTYHERITRGKRSDVVEVWDADKLTFEKEISLPPKRVQGLNYDGLFRQTTDGKFIVLQNASPATSIGIVDVAKGDYVEDVTAAAGCWSVIPQPNRPRSFMTICGDGGLLTINLGEDGKVASQSRSKQMFSVKDDPIFIAPALDKDKAHFVSYYGNVYSADFSGDEVKVDGPWSLLNDEDKAKNWVPGGYNLVGLHRASGRMYVFMHPDGKEGTHKFPAAEIWVMDTKTKQRVARIPGRDALSMTIDQQRNLMLTLDGGNVNVYDISQPEPKLLRTIEGAAEASLQVQFHPVGGT | soluble
PVMHPHGAPPNHRPWQMKDLQAIKQEVSQAAPGSPQFMQTIRLAVQQFDPTAKDLQDLLQYLCSSLVASLHHQQLDSLISEAETRGITSYNPLAGPLRVQANNPQQQGLRREYQQLWLAAFAALPGSAKDPSWA | soluble
PVSQPDAPGHQRKVVSWIDVYTRATCQPREVVVPLTVELMGTVAKQLVPSCVTVQRCGGCCPDDGLECVPTGQHQVRMQILMIRYPSSQLGEMSLEEHSQCECRPKKKDSAVKPDSPRPLCPRCTQHHQRPDPRTCRCRCRRRSFLRCQGRGLELNPDTCRCRKLRR | soluble
